The values that follow come from article doi:10.1101/2021.07.05.451159.

Assay [1] concerns the target GST. The assay can be described thus: SEC. For orientation: In gel filtration, larger molecules generally elute earlier.
For assay [2], the target named is Gp22 (ALY06965.1), receptor-binding protein of C. difficile phage CDHS-1 (Clostridium difficile phage CDHS-1). The assay can be described thus: SEC.

As usually defined, the stoichiometry N is a count of units in the complex or per binding partner.

For GST (natural protein), the stoichiometry N in assay [1] stood at 2.

The substance “Gp22 (ALY06965.1), receptor-binding protein of C. difficile phage CDHS-1 (natural protein)” came in with a stoichiometry N in assay [2] of 2.
